Results: the supplement of paper PMC10126150
± gives the standard deviation of the averaged measurements.

Tested on: ATP
Test: switch fluorescence ratio, 500 uM ATP over buffer (Cy3 cluster intensity, sum of 5 cycles each) (fold (ratio)); higher = stronger signal-on switching upon ATP binding; sequences stand for … in TCGTCGGCAGCGTCAGATGTGTATAAGAGACAGTTTTTTTTTTTTTTTTTTTTTTTTT…TC
Settings: aptamer strand: ATP DNA aptamer (quencher-CACCTGGGGGAGTATTGCGGAGGAAGG + anchor), 100 nM annealed; ATP concentration: 500 uM
How it was run: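 Between each of five buffer/ATP cycles, the flow-cell was stripped with NaOH and re-annealed. Each cycle imaged Cy3-labelled switching-strand clusters, annealed to 100 nM quencher-labelled ATP aptamer on a modified Illumina MiSeq flow-cell, first in selection buffer and then after 15 min with 500 uM ATP at 22 °C. The fluorescence ratio is summed target-cycle over summed buffer-cycle Cy3 intensity per cluster, averaged per switch-domain sequence, with clusters outside 100-1000 RFU excluded.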
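Also: ATP exposure 15 min at 22 °C before imaging.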

| Sequence | switch fluorescence ratio |
| --- | --- |
| TTGCTGGGGT | 1.01 ± 0.044 |
| TTTGTAAGGT | 1.032 ± 0.0089 |
| GGCCCCTATT | 1.023 ± 0.01 |
| ACACGGGGTG | 1.018 ± 0.0018 |
| GCGGGGGTGT | 1.05 ± 0.026 |
| ATAGCGCCG | 1.03 ± 0.035 |
| TTTCGGGAGT | 0.976 ± 0.016 |
| TGAGATGAAG | 1.005 ± 0.0085 |
| TACTCGAGGG | 1.08 ± 0.031 |
| AGATGGGGCG | 0.955 ± 0.088 |
| GAGTTTGACC | 0.965 ± 0.03 |
| TATTATGCGG | 0.984 ± 0.017 |
| GAGTTTATGG | 0.984 ± 0.029 |
| CGATAGTATA | 1.007 ± 0.0082 |
| AAATAACTTT | 1.027 ± 0.0051 |
| ATCATAGGAT | 1.0329 ± 0.00082 |
| TTTATACCAA | 1.038 ± 0.0089 |
| GATTGAGCTG | 1.02 ± 0.043 |
| ATTATGTTTG | 1.002 ± 0.0097 |
| ATCAGGGGGA | 0.997 ± 0.02 |
| ACAGTTGGCT | 1.0179 ± 0.00096 |
| TTGATTCAGC | 1.01 ± 0.012 |
| AGGTAGTGTC | 1.03 ± 0.023 |

| Sequence | switch fluorescence ratio |
| --- | --- |
| GATGTACCTC | 1.05 ± 0.0046 |
| TGTAGGGATT | 1.01 ± 0.054 |
| ACGTCGGGCT | 1.01 ± 0.021 |
| ATATAAGCCC | 1.02 ± 0.021 |
| GTTGGGGATG | 1.02 ± 0.026 |
| CATTAGACAT | 0.994 ± 0.026 |
| GATTATTGGT | 0.987 ± 0.031 |
| TTTGTGTGCG | 0.904 ± 0.047 |
| GAGGTTTTTG | 0.994 ± 0.032 |
| TTAGGCGCAT | 1.03 ± 0.025 |
| ATACATAACG | 1.38 ± 0.052 |
| TTTTTTTCTT | 0.994 ± 0.024 |
| CGTTGATTTG | 0.9908 ± 0.0057 |
| TGAAGGGGTG | 0.989 ± 0.026 |
| ATTTGTATGC | 1 ± 0.051 |
| GTTTAAGGTT | 1.08 ± 0.2 |
| TATAAGTAGG | 0.968 ± 0.028 |
| CATTCGATGC | 1.265 ± 0.0044 |
| CGGGGTAATG | 0.979 ± 0.012 |
| TTAGTTATAG | 1 ± 0.025 |
| GCTTTAATAA | 0.991 ± 0.077 |
| TATCGGGACT | 0.9751 ± 0.006 |
| AAAAGGATTG | 0.982 ± 0.04 |

| Sequence | switch fluorescence ratio |
| --- | --- |
| TTCCGAGCTA | 2.563 ± 0.0074 |
| CACTCTCAGC | 1.04 ± 0.012 |
| TACGTCTTGG | 1.04 ± 0.033 |
| GCTAGCCAAG | 1.04 ± 0.053 |
| CGGTAATGTG | 1.03 ± 0.035 |
| CGAGTAACGC | 1.03 ± 0.015 |
| AAATGGGACT | 1.03 ± 0.026 |
| CGTTCTGAAT | 0.9901 ± 0.0086 |
| AAGCTAATGT | 1.061 ± 0.0089 |
| AGCCGTATGA | 1.013 ± 0.0087 |
| CAGTTTTCGG | 1 ± 0.021 |
| TCATGGAATT | 1 ± 0.031 |
| ACACTTTACT | 1.32 ± 0.014 |
| GTTAGTAGGA | 1.02 ± 0.019 |
| TACTGGGGTT | 0.981 ± 0.031 |
| GGTGCAGGGG | 1.11 ± 0.023 |
| AAATATCTCT | 0.982 ± 0.048 |
| TTTGTACTGG | 1.01 ± 0.041 |
| TATTGGTCGT | 0.968 ± 0.042 |
| TAGGGTTTTG | 1.01 ± 0.042 |
| TAGTATGTGG | 0.9612 ± 0.0025 |
| CGTTTACGGA | 0.998 ± 0.026 |
| CGTGGGACTG | 1.02 ± 0.017 |

| Sequence | switch fluorescence ratio |
| --- | --- |
| AGGCCGGCTG | 0.96 ± 0.066 |
| ACGCCGTATG | 1 ± 0.011 |
| GGTTATCGAT | 0.999 ± 0.0014 |
| AAGGGCTGCA | 1.032 ± 0.0052 |
| GGGTGTTGAC | 0.993 ± 0.018 |
| AACTTAAATT | 1.01 ± 0.021 |
| TCTTTTTAGT | 1 ± 0.029 |
| TAGCCTGGAC | 1.1 ± 0.031 |
| CGTAGTTTGT | 1.03 ± 0.076 |
| GACAGTTGGG | 0.999 ± 0.017 |
| CCGTGGCGCA | 1.88 ± 0.21 |
| TTAAGATGTT | 0.993 ± 0.016 |
| TAATGGGGGG | 0.989 ± 0.037 |
| GTGGGGTACA | 0.996 ± 0.049 |
| ACTGTCGTCT | 1.0405 ± 0.00033 |
| GACACTATTG | 0.999 ± 0.016 |
| TAGGGGTGAG | 1.04 ± 0.021 |
| CCGACCAGGG | 1.3 ± 0.13 |
| TTCACAGGAG | 1.12 ± 0.05 |
| AGGTATGGCC | 1.04 ± 0.091 |
| AGGTCAACCG | 1.02 ± 0.02 |
| GGTTTGTGTG | 0.991 ± 0.018 |
| GCGCAAAATT | 0.9973 ± 0.0046 |

| Sequence | switch fluorescence ratio |
| --- | --- |
| GTTGTTATGG | 0.988 ± 0.017 |
| ACTCGGGGAG | 1 ± 0.013 |
| ATCGGGGGGG | 1 ± 0.035 |
| GCCCGGAGCG | 1.68 ± 0.13 |
| AACGTAGGAC | 1.1 ± 0.014 |
| GAAAATTGGG | 0.983 ± 0.015 |
| CGGACACGAA | 0.981 ± 0.022 |
| CCCAAAGCGG | 1.09 ± 0.032 |
| CCAGAGGAAT | 1.043 ± 0.0079 |
| AGCGGATTTG | 0.966 ± 0.014 |
| GGCCGAATGG | 1.03 ± 0.043 |
| CATTACAACA | 1.02 ± 0.059 |
| GCGTAATGGG | 0.975 ± 0.02 |
| GGGTTAGGTA | 0.96 ± 0.053 |
| ACGTATATTG | 1.058 ± 0.0052 |
| TCGGACGTGC | 1.35 ± 0.1 |
| TTTTTATCGT | 1.02 ± 0.017 |
| GTTGTTTAAT | 1.006 ± 0.0081 |
| TAAAGGATCC | 1.02 ± 0.041 |
| GTCAGATGGG | 0.948 ± 0.01 |
| TTTTATGTTA | 0.977 ± 0.032 |
| CAAGAGTGTG | 0.98 ± 0.032 |
| ACTGGTTAGT | 1 ± 0.045 |

| Sequence | switch fluorescence ratio |
| --- | --- |
| TTGGGGGCAT | 1.02 ± 0.052 |
| CTGATGTGGG | 0.964 ± 0.015 |
| TTGCTCATAA | 1 ± 0.032 |
| CGTCATCGCA | 1.2 ± 0.022 |
| GCAGTACTTT | 1.5 ± 0.12 |
| AAGGTAGCTT | 1.011 ± 0.0094 |
| GTGTCCGGTA | 0.983 ± 0.037 |
| TGAGAACGCA | 1.2 ± 0.054 |
| GCCACCGTTT | 1.06 ± 0.021 |
| TTTTAGAGCG | 1.02 ± 0.025 |
| TTTAGTCATG | 0.977 ± 0.035 |
| GCGCAAGGGG | 1.01 ± 0.015 |
| CGTATGGGGG | 1.07 ± 0.08 |
| CAGGGGCTCG | 1.01 ± 0.036 |
| AACGCTTATT | 1.09 ± 0.064 |
| ATTCCGGTGG | 0.989 ± 0.052 |
| ATGGAGAGAG | 0.9929 ± 0.004 |
| TGGATCATGG | 0.9753 ± 0.009 |
| CCGCAGAGTG | 3.98 ± 2.1 |
| ACCTGGGCAG | 1.07 ± 0.015 |
| CGAAGGCTGG | 1.0003 ± 0.00038 |
| GATAGTTTTT | 0.985 ± 0.03 |
| TCCTTAATTT | 1.02 ± 0.055 |

| Sequence | switch fluorescence ratio |
| --- | --- |
| GCTTGCATTT | 1.02 ± 0.035 |
| GGGGTACTGG | 1.01 ± 0.016 |
| TTGGGGCGTT | 0.993 ± 0.057 |
| CCGAAAAGAT | 1.44 ± 0.59 |
| GAATTGGGGA | 1.01 ± 0.029 |
| TAACCTTTAA | 1.04 ± 0.02 |
| TATTTGGTGA | 0.993 ± 0.025 |
| ATCGCATGTC | 1.23 ± 0.094 |
| GGGGAGTATT | 0.971 ± 0.015 |
| TGGTCCGCTA | 1.755 ± 0.011 |
| TCACTGGTCT | 0.9849 ± 0.0037 |
| TTCTTGATAA | 1.01 ± 0.013 |
| TAGGCGGGGG | 1 ± 0.02 |
| GGGGAATTGA | 0.9919 ± 0.0013 |
| AAAATCATTG | 0.9615 ± 0.0027 |
| CTTCTTTGTG | 0.996 ± 0.018 |
| TTGAGATGGT | 0.954 ± 0.017 |
| CTTGGAGTGG | 0.978 ± 0.024 |
| GCTAAAGTTC | 1.01 ± 0.0014 |
